{"source": "paper PMC6814019", "about": "(Molecular cell, 2019)", "molecular_target": "the molecule itself", "test": "native MS", "note": "Values joined by “and” are separate entries in the source; they are usually repeats but may differ in a detail not shown here. Equal values may be shown once."}
{"protein": "C. elegans MORC-1 (8x-His-MBP-CeMORC) (natural protein, UniProt Q23243 1-845, looked up) MPNDTNGDDYKKLEKASVNLNFLKSNSHTHIGPLSAIAELVDNAYDADARDLHIDFLDINNEQFLELRDDGLGMAREEALHAITFGHSAKCSYKIGRYGNGLKSGAFHLGRELLLVTKKDGIITALLISHRFHEDQGLTNSVFVPCPSFDLDGIPICQTESEKDRFNLEMKIIGKYAPLGSRTLAELADKITGSTGTIIIIGNLRRSVTGELAINTTKDPTDIIVDSGEENKPWRESLRKYLEFIYLKPRMRIHVRGEQVLPKRISENWIAKKQQLISGDQFTAAYNKILDEKNETVKKCEEEKALVMSEIGGTNYTSVRREDRANQKSLRLRVDTSQKNLDSAIADRDAFKKEGKSEKSFHLNMGIETKDRSNNGIHFYINNRLILWGNKEAKFFSKFANSIGISMFLSLDYSLFSAAQNKQGFDHVKDFQVLVRKCNDALRDYSMYLEKSWIPTHLKNTWNVRIYEGDDVWAVLWGVYGYNNTTSTTCVQTHDSARDQVMWTTCGIWKLCQMCRTWIKASRPNEIVGSNDDFFCCENVNHHGCRTIVAEDNDFSKLPEKYDHILPQKRLTNSAPSSSDSQNSIRSASSCSSSSRLLNVAKIESHERIHSSTGGHRLGESFSTTSVKMEPIPNNAHDSHIAEVQRRHSTGRAISPAVSEISRRAGTAPSSQLDMIMGEESDESQEALTIRAPRQRAKRPIERVSRRNRRDQSDDDSDSENEERYATAPKKSKVKGKAVVRAPKMTREKWLEEMLNQFLTAHGEQPLPKNGQRDFDPTNIVEQTSRRNFKNNQRIVDAQQAIMRQIGSVLDHLKRNPTHNFKIPASGTVEEKLKNIEHQIKGKKK", "values": [{"measurement": "stoichiometry N", "value": "2 and 3 and 4"}]}
